{"source": "patent US20230125550A1", "about": "(ARCELLX, published 2023)", "binders": {"B1": {"name": "SEQ ID NO 700 (designed binder)", "chain": "MGSWNEFYDRLSAIYFRLQALGGSEAELAAFEKEIAAFESELQAYKGKGNPEVEHLRWYAADIRMILQAYRHN"}, "B2": {"name": "SEQ ID NO 698 (designed binder)", "chain": "MGSWYEFYNRLSAIYARLQALGGSEAELAAFEKEIAAFESELQAYKGKGNPEVEDLRWYAADIRYMLQAYRHN"}, "B3": {"name": "SEQ ID NO 699 (designed binder)", "chain": "MGSWYEFYDRLSAIYARLQALGGSEAELAAFEKEIAAFESELQAYKGKGNPEVEDLRWYAADIRYMLQAYRHN"}, "B4": {"name": "SEQ ID NO 701 (designed binder)", "chain": "MGSWNEFYDRLSAIYFRLQALGGFEAELAAFEKEIAAFESELQAYKGKGNPEVEHLRWYAADIRMILQAYRHN"}, "B5": {"name": "SEQ ID NO 702 (designed binder)", "chain": "MGSWEEFYDRLGAIFARLHALGGSEAELAAFEKEIAAFESELQAYKGKGNPEVEDLRWYAADIRMILQAYRHN"}, "B6": {"name": "SEQ ID NO 703 (designed binder)", "chain": "MGSWVEFYDRLHAIYFRLLALGGSEAELAAFEKEIAAFESELQAYKGKGNPEVEDLRWYAADIRLVLQAYRHN"}, "B7": {"name": "SEQ ID NO 704 (designed binder)", "chain": "MGSWKEFDNRLYAIEDRLRALGGSEAELAAFEKEIAAFESELQAYKGKGNPEVEHLRWYAADIRMILQAYRHN"}, "B8": {"name": "SEQ ID NO 730 (designed binder)", "chain": "MGSWWEFEDRLMAIYDRLYALGGSEAELAAFEKEIAAFESELQAYKGKGNPEVEYLRAEAALIRETLQAYRHN"}, "B9": {"name": "SEQ ID NO 731 (designed binder)", "chain": "MGSWFEFEDRLYAIEDRLYALGGSEAELAAFEKEIAAFESELQAYKGKGNPEVEYLRWGAATIRDELQAYRHN"}, "B10": {"name": "SEQ ID NO 736 (designed binder)", "chain": "MGSWFEFVDRLEAIEMRLFALGGSEAELAAFEKEIAAFESELQAYKGKGNPEVELLRWRAAMIRYDLQAYRHN"}, "B11": {"name": "SEQ ID NO 911 (designed binder)", "chain": "MGSWHEFRWRLFAIWQRLHALGGSEAELAAFEKEIAAFESELQAYKGKGNPEVEWLRLDAALIRVMLQAYRHN"}, "B12": {"name": "SEQ ID NO 920 (designed binder)", "chain": "MGSWYEFRWRLHAIWLRLGALGGSEAELAAFEKEIAAFESELQAYKGKGNPEVEWLRQDAAQIRYILQAYRHN"}, "B13": {"name": "SEQ ID NO 921 (designed binder)", "chain": "MGSWHEFLRRLLAIEMRLYALGGSEAELAAFEKEIAAFESELQAYKGKGNPEVEHLRVRAASIRQMLQAYRHN"}, "B14": {"name": "SEQ ID NO 922 (designed binder)", "chain": "MGSWWGFKVNLAWIKWKLEALGGSEAELAYFELWIANFEHSLQEYKGKGNPEVEALRKEAAAIRDELQAYRHN"}, "B15": {"name": "SEQ ID NO 923 (designed binder)", "chain": "MGSWVNFKTHLARIKVHLEALGGSEAELALFEHDIANFEQVLQQYKGKGNPEVEALRKEAAAIRDELQAYRHN"}, "B16": {"name": "SEQ ID NO 924 (designed binder)", "chain": "MGSWLVFKDELAGIKNYLEALGGSEAELATFEQDIAWFEQWLQNYKGKGNPEVEALRKEAAAIRDELQAYRHN"}, "B17": {"name": "SEQ ID NO 925 (designed binder)", "chain": "MGSWKTFKIELAGIKLELEALGGSEAELAGFENAIAQFESSLQYYKGKGNPEVEALRKEAAAIRDELQAYRHN"}, "B18": {"name": "SEQ ID NO 926 (designed binder)", "chain": "MGSWWEFKVRLSAIQYRLYALGGSEAELAAFEKEIAAFESELQAYKGKGNPEVEALREQAALIRTILQAYRHN"}, "B19": {"name": "SEQ ID NO 927 (designed binder)", "chain": "MGSWWEFHIRLHAINYRLAALGGSEAELAAFEKEIAAFESELQAYKGKGNPEVEALRELAAKIRGDLQAYRHN"}, "B20": {"name": "SEQ ID NO 928 (designed binder)", "chain": "MGSWWEFQVRLRAIQYRLNALGGSEAELAAFEKEIAAFESELQAYKGKGNPEVEYLRGLAAQIRFDLQAYRHN"}, "B21": {"name": "SEQ ID NO 929 (designed binder)", "chain": "MGSWWEFKIRLYAIEYRLNALGGSEAELAAFEKEIAAFESELQAYKGKGNPEVEALRAKAAQIRYNLQAYRHN"}, "B22": {"name": "SEQ ID NO 930 (designed binder)", "chain": "MGSWFEFNIRLHAIEYRLKALGGSEAELAAFEKEIAAFESELQAYKGKGNPEVEELRNYAASIRKLLQAYRHN"}, "B23": {"name": "SEQ ID NO 931 (designed binder)", "chain": "MGSWFEFEIRLRAIEYRLSALGGSEAELAAFEKEIAAFESELQAYKGKGNPEVEKLRELAAEIRYALQAYRHN"}, "B24": {"name": "SEQ ID NO 932 (designed binder)", "chain": "MGSWFEFKIRLYAIQYRLSALGGSEAELAAFEKEIAAFESELQAYKGKGNPEVEELRNLAAEIRHSLQAYRHN"}, "B25": {"name": "SEQ ID NO 933 (designed binder)", "chain": "MGSWWEFKVRLRAIEYRLSALGGSEAELAAFEKEIAAFESELQAYKGKGNPEVEELRVLAASIRIHLQAYRHN"}, "B26": {"name": "SEQ ID NO 934 (designed binder)", "chain": "MGSWSEFWFRLHAILYRLQALGGSEAELAAFEKEIAAFESELQAYKGKGNPEVETLRDAAAEIRVALQAYRHN"}, "B27": {"name": "SEQ ID NO 935 (designed binder)", "chain": "MGSWIEFWVRLNAILYRLYALGGSEAELAAFEKEIAAFESELQAYKGKGNPEVEALRDSAAEIRRWLQAYRHN"}, "B28": {"name": "SEQ ID NO 936 (designed binder)", "chain": "MGSWVEFWIRLNAIKYRLLALGGSEAELAAFEKEIAAFESELQAYKGKGNPEVEKLRQDAADIRELLQAYRHN"}, "B29": {"name": "SEQ ID NO 937 (designed binder)", "chain": "MGSWTEFWWRLSAIVYRLNALGGSEAELAAFEKEIAAFESELQAYKGKGNPEVEELRDMAADIRSLLQAYRHN"}, "B30": {"name": "SEQ ID NO 938 (designed binder)", "chain": "MGSWWEFYLRLRAISYRLQALGGSEAELAAFEKEIAAFESELQAYKGKGNPEVEGLRQDAAEIRKLLQAYRHN"}, "B31": {"name": "SEQ ID NO 939 (designed binder)", "chain": "MGSWWEFHVRLRAIEYRLEALGGSEAELAAFEKEIAAFESELQAYKGKGNPEVEQLRLIAANIRHLLQAYRHN"}, "B32": {"name": "SEQ ID NO 940 (designed binder)", "chain": "MGSWWEFHVRLKAIEYRLLALGGSEAELAAFEKEIAAFESELQAYKGKGNPEVEDLRYIAANIRQLLQAYRHN"}, "B33": {"name": "SEQ ID NO 942 (designed binder)", "chain": "MGSWWEFQVRLAAIEYRLKALGGSEAELAAFEKEIAAFESELQAYKGKGNPEVENLRQLAAHIRSVLQAYRHN"}, "B34": {"name": "SEQ ID NO 943 (designed binder)", "chain": "MGSWWEFQVRLSAIEYRLTALGGSEAELAAFEKEIAAFESELQAYKGKGNPEVEELRQKAARIRSLLQAYRHN"}, "B35": {"name": "SEQ ID NO 944 (designed binder)", "chain": "MGSWWEFNIRLHAIDYRLKALGGSEAELAAFEKEIAAFESELQAYKGKGNPEVELLREKAAQIRAQLQAYRHN"}, "B36": {"name": "SEQ ID NO 945 (designed binder)", "chain": "MGSWWEFRVRLEAIDYRLKALGGSEAELAAFEKEIAAFESELQAYKGKGNPEVEYLRMKAATIRAILQAYRHN"}, "B37": {"name": "SEQ ID NO 946 (designed binder)", "chain": "MGSWYEFDIRLEAIKYRLSALGGSEAELAAFEKEIAAFESELQAYKGKGNPEVEYLRKKAAVIRSMLQAYRHN"}, "B38": {"name": "SEQ ID NO 947 (designed binder)", "chain": "MGSWWEFRIRLEAIWYRLHALGGSEAELAAFEKEIAAFESELQAYKGKGNPEVEDLRIFAANIRSKLQAYRHN"}, "B39": {"name": "SEQ ID NO 948 (designed binder)", "chain": "MGSWWEFNVRLQAIKYRLSALGGSEAELAAFEKEIAAFESELQAYKGKGNPEVEDLRKTAAHIRWQLQAYRHN"}, "B40": {"name": "SEQ ID NO 949 (designed binder)", "chain": "MGSWWEFNVRLSAIRYRLLALGGSEAELAAFEKEIAAFESELQAYKGKGNPEVEDLRASAAQIRAMLQAYRHN"}, "B41": {"name": "SEQ ID NO 950 (designed binder)", "chain": "MGSWWEFNMRLSAIKYRLYALGGSEAELAAFEKEIAAFESELQAYKGKGNPEVEILRRLAADIRERLQAYRHN"}}}
{"molecular_target": "T1, recombinant human CD123-Fc (human, UniProt P26951 19-305)", "T1 construct": "not shown: Fc part of CD123-Fc", "T1 sequence": "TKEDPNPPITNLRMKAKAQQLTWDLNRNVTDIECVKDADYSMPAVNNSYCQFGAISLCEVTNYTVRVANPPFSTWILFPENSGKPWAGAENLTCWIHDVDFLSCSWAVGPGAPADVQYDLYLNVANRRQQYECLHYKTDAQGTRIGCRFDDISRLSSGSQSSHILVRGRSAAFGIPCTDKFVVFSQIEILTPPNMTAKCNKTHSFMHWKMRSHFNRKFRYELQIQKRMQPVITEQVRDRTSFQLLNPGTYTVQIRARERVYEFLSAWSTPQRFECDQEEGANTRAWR", "experiment": "phage ELISA, A450 target/A450 IgG1-Fc", "procedure,_shortened": "(§1)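 Individual phagemid colonies picked from panning output were rescued in 96-well format using VCSM13 helper phage. Plates received 1.3 microg/ml goat anti-human IgG1-Fc antibody, followed by 5 nM recombinant human target or IgG1-Fc, and then 50 microl of phage diluted 5× in ELISA blocking buffer. An HRP-conjugated anti-M13 antibody detected binding at 450 nm. For each clone, the ELISA ratio is the absorbance with target divided by that with IgG1-Fc, averaged over every screened well containing the clone.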", "units": {"ELISA_avg": "ratio"}}
{"binder": "B1", "ELISA_avg": 10.6}
{"binder": "B2", "ELISA_avg": 10.6}
{"binder": "B3", "ELISA_avg": 5.3}
{"binder": "B4", "ELISA_avg": 9}
{"binder": "B5", "ELISA_avg": 3.9}
{"binder": "B6", "ELISA_avg": 4.8}
{"binder": "B7", "ELISA_avg": 3.9}
{"binder": "B8", "ELISA_avg": 15.3}
{"binder": "B9", "ELISA_avg": 4.7}
{"binder": "B10", "ELISA_avg": 7.1}
{"molecular_target": "HER2 (Homo sapiens (Human), UniProt P04626 23-652)", "experiment": "phage ELISA, A450 target/A450 IgG1-Fc", "procedure,_shortened": "as §1", "units": {"ELISA_avg": "ratio"}}
{"binder": "B11", "ELISA_avg": 10}
{"binder": "B12", "ELISA_avg": 7.18}
{"binder": "B13", "ELISA_avg": 8.15}
{"binder": "B14", "ELISA_avg": 8.69}
{"binder": "B15", "ELISA_avg": 7.91}
{"binder": "B16", "ELISA_avg": 3.28}
{"binder": "B17", "ELISA_avg": 4.95}
{"binder": "B18", "ELISA_avg": 5.17}
{"binder": "B19", "ELISA_avg": 11.9}
{"binder": "B20", "ELISA_avg": 14.4}
{"binder": "B21", "ELISA_avg": 4.49}
{"binder": "B22", "ELISA_avg": 7.86}
{"binder": "B23", "ELISA_avg": 7.75}
{"binder": "B24", "ELISA_avg": 13.1}
{"binder": "B25", "ELISA_avg": 10.1}
{"binder": "B26", "ELISA_avg": 14.8}
{"binder": "B27", "ELISA_avg": 3.91}
{"binder": "B28", "ELISA_avg": 10.6}
{"binder": "B29", "ELISA_avg": 5.76}
{"binder": "B30", "ELISA_avg": 5.1}
{"binder": "B31", "ELISA_avg": 5.48}
{"binder": "B32", "ELISA_avg": 4.56}
{"binder": "B33", "ELISA_avg": 6.33}
{"binder": "B34", "ELISA_avg": 9.61}
{"binder": "B35", "ELISA_avg": 9.75}
{"binder": "B36", "ELISA_avg": 6.82}
{"binder": "B37", "ELISA_avg": 5.35}
{"binder": "B38", "ELISA_avg": 8.04}
{"binder": "B39", "ELISA_avg": 5.23}
{"binder": "B40", "ELISA_avg": 6.73}
{"binder": "B41", "ELISA_avg": 3.08}
